Assay results from patent US20220010021A1 (Sanofi, published 2022).

T1: human beta-Klotho (KLB) (human, UniProt Q86Z14 53-997)
T1 construct: bought protein, used as analyte in the off-rate screening; also called human KLB; β-Klotho
T1 sequence (looked up): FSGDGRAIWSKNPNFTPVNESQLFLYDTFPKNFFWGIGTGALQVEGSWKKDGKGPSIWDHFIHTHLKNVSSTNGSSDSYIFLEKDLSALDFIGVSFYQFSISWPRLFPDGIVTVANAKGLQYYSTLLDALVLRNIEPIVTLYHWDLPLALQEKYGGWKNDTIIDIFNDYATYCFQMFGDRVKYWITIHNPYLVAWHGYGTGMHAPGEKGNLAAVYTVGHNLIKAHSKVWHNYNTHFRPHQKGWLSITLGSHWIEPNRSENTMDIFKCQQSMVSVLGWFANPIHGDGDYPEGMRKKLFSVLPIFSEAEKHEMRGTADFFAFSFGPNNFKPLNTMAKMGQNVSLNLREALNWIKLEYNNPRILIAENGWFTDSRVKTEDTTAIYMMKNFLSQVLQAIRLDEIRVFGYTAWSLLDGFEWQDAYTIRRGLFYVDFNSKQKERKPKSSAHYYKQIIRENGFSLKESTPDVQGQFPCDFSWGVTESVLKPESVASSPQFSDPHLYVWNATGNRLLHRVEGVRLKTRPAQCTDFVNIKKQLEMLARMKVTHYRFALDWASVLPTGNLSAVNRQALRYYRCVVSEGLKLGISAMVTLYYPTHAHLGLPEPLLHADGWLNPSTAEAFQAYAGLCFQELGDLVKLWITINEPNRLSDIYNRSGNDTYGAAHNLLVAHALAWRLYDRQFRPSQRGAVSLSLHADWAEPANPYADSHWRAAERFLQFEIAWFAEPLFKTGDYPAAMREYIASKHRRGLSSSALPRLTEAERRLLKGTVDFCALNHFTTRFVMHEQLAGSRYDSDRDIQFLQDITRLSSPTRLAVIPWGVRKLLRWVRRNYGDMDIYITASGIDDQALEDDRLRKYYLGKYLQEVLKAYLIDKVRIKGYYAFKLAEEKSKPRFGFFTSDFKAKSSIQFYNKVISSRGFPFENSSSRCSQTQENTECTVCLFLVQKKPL

T2: human beta-Klotho (KLB) (human, UniProt Q86Z14 53-997)
T2 construct: Bought soluble protein; also called human KLB; ß-Klotho
T2 sequence (looked up): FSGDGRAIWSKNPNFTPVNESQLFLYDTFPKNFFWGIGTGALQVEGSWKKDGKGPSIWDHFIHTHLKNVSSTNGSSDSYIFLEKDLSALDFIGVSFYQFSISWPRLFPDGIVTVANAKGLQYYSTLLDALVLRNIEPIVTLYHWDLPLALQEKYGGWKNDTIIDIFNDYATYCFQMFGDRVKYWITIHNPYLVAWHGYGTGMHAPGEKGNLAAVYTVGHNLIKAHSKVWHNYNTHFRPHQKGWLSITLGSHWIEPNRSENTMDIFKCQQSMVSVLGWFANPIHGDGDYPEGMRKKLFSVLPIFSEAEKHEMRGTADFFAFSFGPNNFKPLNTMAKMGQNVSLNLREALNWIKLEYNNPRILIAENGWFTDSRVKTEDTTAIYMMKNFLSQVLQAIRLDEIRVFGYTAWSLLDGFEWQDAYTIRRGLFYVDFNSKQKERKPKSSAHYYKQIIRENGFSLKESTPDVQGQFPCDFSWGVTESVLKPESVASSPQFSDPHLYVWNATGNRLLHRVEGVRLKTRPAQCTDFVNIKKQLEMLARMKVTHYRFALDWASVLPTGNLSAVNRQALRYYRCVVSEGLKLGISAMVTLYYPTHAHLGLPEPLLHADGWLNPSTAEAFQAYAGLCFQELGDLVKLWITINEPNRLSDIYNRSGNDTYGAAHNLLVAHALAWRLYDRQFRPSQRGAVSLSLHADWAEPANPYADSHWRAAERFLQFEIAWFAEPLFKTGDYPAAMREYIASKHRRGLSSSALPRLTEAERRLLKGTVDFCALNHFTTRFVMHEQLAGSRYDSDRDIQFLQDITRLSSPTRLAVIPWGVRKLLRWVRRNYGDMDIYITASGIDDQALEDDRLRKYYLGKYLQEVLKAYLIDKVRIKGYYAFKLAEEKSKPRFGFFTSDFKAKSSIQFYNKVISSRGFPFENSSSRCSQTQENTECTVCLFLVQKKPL


Tests used:
[1] = molecular target: T1, human beta-Klotho (KLB); assay: BLI off-rate screening, mAb captured, KLB analyte;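 further: Off-rate taken from the dissociation phase, biosensors held in D-PBS with 0.1% BSA over 1800 s, antibody supernatants diluted to 25 µg/mL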
[2] = molecular target: human FGFR1c/KLB receptor complex on iLite FGF21 Assay Ready Cells (human, UniProt P11362 22-822; Q86Z14 1-1044); assay: cell-based or functional assay
human FGFR1c/KLB receptor complex on iLite FGF21 Assay Ready Cells, sequence (P11362 22-822, chain 1 of 2): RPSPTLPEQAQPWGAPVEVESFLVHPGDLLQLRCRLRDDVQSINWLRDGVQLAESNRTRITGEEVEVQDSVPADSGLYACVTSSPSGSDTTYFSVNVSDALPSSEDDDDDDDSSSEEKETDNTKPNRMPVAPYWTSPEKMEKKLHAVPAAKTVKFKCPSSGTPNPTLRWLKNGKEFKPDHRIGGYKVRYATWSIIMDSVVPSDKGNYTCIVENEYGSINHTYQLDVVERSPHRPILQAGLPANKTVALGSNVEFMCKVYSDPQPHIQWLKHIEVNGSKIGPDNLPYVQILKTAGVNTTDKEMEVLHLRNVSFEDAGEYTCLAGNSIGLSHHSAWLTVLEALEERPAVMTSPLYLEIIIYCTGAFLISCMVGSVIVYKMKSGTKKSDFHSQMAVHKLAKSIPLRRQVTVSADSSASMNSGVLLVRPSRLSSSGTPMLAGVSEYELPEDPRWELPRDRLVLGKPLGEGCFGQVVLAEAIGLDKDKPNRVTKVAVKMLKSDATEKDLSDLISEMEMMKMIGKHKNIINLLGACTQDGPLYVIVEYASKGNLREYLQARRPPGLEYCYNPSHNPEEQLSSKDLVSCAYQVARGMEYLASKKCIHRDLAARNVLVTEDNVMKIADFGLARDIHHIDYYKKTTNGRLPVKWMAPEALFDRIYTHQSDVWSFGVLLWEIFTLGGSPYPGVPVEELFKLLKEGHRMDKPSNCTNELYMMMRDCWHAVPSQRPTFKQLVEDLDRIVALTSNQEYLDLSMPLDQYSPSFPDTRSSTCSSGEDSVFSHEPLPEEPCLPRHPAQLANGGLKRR
human FGFR1c/KLB receptor complex on iLite FGF21 Assay Ready Cells, sequence (Q86Z14 whole entry, chain 2 of 2): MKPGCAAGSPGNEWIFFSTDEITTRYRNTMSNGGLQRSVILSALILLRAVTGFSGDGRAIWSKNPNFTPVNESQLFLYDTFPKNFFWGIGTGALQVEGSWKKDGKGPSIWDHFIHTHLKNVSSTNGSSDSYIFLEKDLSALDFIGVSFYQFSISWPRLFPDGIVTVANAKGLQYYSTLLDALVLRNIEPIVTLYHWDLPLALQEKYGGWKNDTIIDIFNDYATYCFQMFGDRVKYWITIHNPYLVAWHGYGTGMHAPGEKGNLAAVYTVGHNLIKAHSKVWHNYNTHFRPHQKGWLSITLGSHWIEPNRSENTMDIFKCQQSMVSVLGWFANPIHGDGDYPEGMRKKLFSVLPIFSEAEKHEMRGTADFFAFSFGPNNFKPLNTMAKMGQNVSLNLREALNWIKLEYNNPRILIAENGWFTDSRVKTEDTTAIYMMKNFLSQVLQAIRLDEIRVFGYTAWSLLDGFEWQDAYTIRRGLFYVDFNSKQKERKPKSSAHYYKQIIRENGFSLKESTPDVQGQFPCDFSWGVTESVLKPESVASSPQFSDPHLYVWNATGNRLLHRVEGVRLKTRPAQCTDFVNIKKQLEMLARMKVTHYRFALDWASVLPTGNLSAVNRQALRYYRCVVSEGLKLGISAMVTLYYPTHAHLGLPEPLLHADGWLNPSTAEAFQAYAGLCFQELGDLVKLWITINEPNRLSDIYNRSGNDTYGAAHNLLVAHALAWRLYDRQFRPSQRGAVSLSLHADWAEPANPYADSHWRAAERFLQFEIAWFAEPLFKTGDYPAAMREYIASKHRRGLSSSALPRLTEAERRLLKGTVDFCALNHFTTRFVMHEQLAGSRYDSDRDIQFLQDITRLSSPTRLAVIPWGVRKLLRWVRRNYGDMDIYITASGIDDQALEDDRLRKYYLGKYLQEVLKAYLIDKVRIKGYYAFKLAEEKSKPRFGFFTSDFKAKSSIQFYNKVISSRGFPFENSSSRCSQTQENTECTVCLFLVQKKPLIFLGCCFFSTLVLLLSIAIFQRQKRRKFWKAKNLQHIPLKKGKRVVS

[3] = molecular target: T2, human beta-Klotho (KLB); assay: BLI off-rate screen, supernatant;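 further: expression supernatants tested at 25 µg/mL, dissociation followed for 1800 s in D-PBS with 0.1% BSA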
[4] = molecular target: cell surface receptor composed of FGFR1c and co-receptor beta-Klotho (KLB) (human, UniProt P11362 22-822; Q86Z14 1-1044); assay: cell-based or functional assay
cell surface receptor composed of FGFR1c and co-receptor beta-Klotho (KLB), sequence (P11362 22-822, chain 1 of 2): as the sequence (P11362 22-822, chain 1 of 2) above
cell surface receptor composed of FGFR1c and co-receptor beta-Klotho (KLB), sequence (Q86Z14 whole entry, chain 2 of 2): as the sequence (Q86Z14 whole entry, chain 2 of 2) above
Wherever Mean E max (%) is given: reference of the scale not given here.
Wherever Mean E max, Luciferase reporter gene assay is given: reference of the scale not given here.

Binder | koff [1] | Mean E max (%) [2] | Mean EC50 [2] | koff [3] | Mean E max, Luciferase reporter gene assay [4] | Mean EC50, Luciferase reporter gene assay [4]
16H7 variant with light chain substitution P54R (antibody, V domains shown) VH: not shown VL: SYVLTQPPSVSVAPGQTARITCGGNNIGSESVHWYQQKPGQAPVLVVYDDSDRRSGIPERFSGSNSGNTATLTISRVEAGDEADYYCQVWDGNSDHVVFGGGTKLTVLG | 0.00011 s⁻¹ | 104% | 111 pM | – | – | –
16H7 variant with light chain substitution D52I (antibody, V domains shown) VH: not shown VL: SYVLTQPPSVSVAPGQTARITCGGNNIGSESVHWYQQKPGQAPVLVVYDDSIRPSGIPERFSGSNSGNTATLTISRVEAGDEADYYCQVWDGNSDHVVFGGGTKLTVLG | 2.8e-05 s⁻¹ | 110% | 140 pM | – | – | –
16H7 variant with light chain substitution D52F (antibody, V domains shown) VH: not shown VL: SYVLTQPPSVSVAPGQTARITCGGNNIGSESVHWYQQKPGQAPVLVVYDDSFRPSGIPERFSGSNSGNTATLTISRVEAGDEADYYCQVWDGNSDHVVFGGGTKLTVLG | 7.9e-06 s⁻¹ | 102% | 105 pM | – | – | –
16H7 variant with light chain substitution D52A (antibody, V domains shown) VH: not shown VL: SYVLTQPPSVSVAPGQTARITCGGNNIGSESVHWYQQKPGQAPVLVVYDDSARPSGIPERFSGSNSGNTATLTISRVEAGDEADYYCQVWDGNSDHVVFGGGTKLTVLG | 4.8e-05 s⁻¹ | 101% | 163 pM | – | – | –
16H7 variant with light chain substitution D52M (antibody, V domains shown) VH: not shown VL: SYVLTQPPSVSVAPGQTARITCGGNNIGSESVHWYQQKPGQAPVLVVYDDSMRPSGIPERFSGSNSGNTATLTISRVEAGDEADYYCQVWDGNSDHVVFGGGTKLTVLG | 2.4e-05 s⁻¹ | 105% | 144 pM | – | – | –
16H7 variant with light chain substitution D52E (antibody, V domains shown) VH: not shown VL: SYVLTQPPSVSVAPGQTARITCGGNNIGSESVHWYQQKPGQAPVLVVYDDSERPSGIPERFSGSNSGNTATLTISRVEAGDEADYYCQVWDGNSDHVVFGGGTKLTVLG | 1e-07 s⁻¹ | 123% | 114 pM | – | – | –
16H7 light chain variant S31T (antibody, V domains shown, copies: 2 + 2) VH: not shown VL: SYVLTQPPSVSVAPGQTARITCGGNNIGSETVHWYQQKPGQAPVLVVYDDSDRPSGIPERFSGSNSGNTATLTISRVEAGDEADYYCQVWDGNSDHVVFGGGTKLTVLG | – | – | – | 0.00011 s⁻¹ | 101% | 108 pM
16H7 variant with light chain substitution D52H (antibody, V domains shown) VH: not shown VL: SYVLTQPPSVSVAPGQTARITCGGNNIGSESVHWYQQKPGQAPVLVVYDDSHRPSGIPERFSGSNSGNTATLTISRVEAGDEADYYCQVWDGNSDHVVFGGGTKLTVLG | 3.6e-05 s⁻¹ | 97% | 109 pM | – | – | –
16H7 variant with light chain substitution D52T (antibody, V domains shown) VH: not shown VL: SYVLTQPPSVSVAPGQTARITCGGNNIGSESVHWYQQKPGQAPVLVVYDDSTRPSGIPERFSGSNSGNTATLTISRVEAGDEADYYCQVWDGNSDHVVFGGGTKLTVLG | 1.8e-05 s⁻¹ | 100% | 109 pM | – | – | –
16H7 variant with light chain substitution D52G (antibody, V domains shown) VH: not shown VL: SYVLTQPPSVSVAPGQTARITCGGNNIGSESVHWYQQKPGQAPVLVVYDDSGRPSGIPERFSGSNSGNTATLTISRVEAGDEADYYCQVWDGNSDHVVFGGGTKLTVLG | 3.7e-05 s⁻¹ | 109% | 125 pM | – | – | –
16H7 variant with light chain substitution D52K (antibody, V domains shown) VH: not shown VL: SYVLTQPPSVSVAPGQTARITCGGNNIGSESVHWYQQKPGQAPVLVVYDDSKRPSGIPERFSGSNSGNTATLTISRVEAGDEADYYCQVWDGNSDHVVFGGGTKLTVLG | 9.2e-05 s⁻¹ | 101% | 117 pM | – | – | –
16H7 variant with light chain substitution D52Q (antibody, V domains shown) VH: not shown VL: SYVLTQPPSVSVAPGQTARITCGGNNIGSESVHWYQQKPGQAPVLVVYDDSQRPSGIPERFSGSNSGNTATLTISRVEAGDEADYYCQVWDGNSDHVVFGGGTKLTVLG | 2.7e-05 s⁻¹ | 101% | 107 pM | – | – | –
16H7 light chain variant S31W (antibody, human IgG4 S228P, lambda, V domains shown) VH: not shown VL: SYVLTQPPSVSVAPGQTARITCGGNNIGSEWVHWYQQKPGQAPVLVVYDDSDRPSGIPERFSGSNSGNTATLTISRVEAGDEADYYCQVWDGNSDHVVFGGGTKLTVLG | – | – | – | 0.00034 s⁻¹ | 103% | 178 pM
16H7 variant with light chain substitution P54C (antibody, V domains shown) VH: not shown VL: SYVLTQPPSVSVAPGQTARITCGGNNIGSESVHWYQQKPGQAPVLVVYDDSDRCSGIPERFSGSNSGNTATLTISRVEAGDEADYYCQVWDGNSDHVVFGGGTKLTVLG | 0.00012 s⁻¹ | 100% | 116 pM | – | – | –
16H7 variant with light chain substitution D52V (antibody, V domains shown) VH: not shown VL: SYVLTQPPSVSVAPGQTARITCGGNNIGSESVHWYQQKPGQAPVLVVYDDSVRPSGIPERFSGSNSGNTATLTISRVEAGDEADYYCQVWDGNSDHVVFGGGTKLTVLG | 6.9e-05 s⁻¹ | 114% | 125 pM | – | – | –
16H7 variant with light chain substitution P54D (antibody, V domains shown) VH: not shown VL: SYVLTQPPSVSVAPGQTARITCGGNNIGSESVHWYQQKPGQAPVLVVYDDSDRDSGIPERFSGSNSGNTATLTISRVEAGDEADYYCQVWDGNSDHVVFGGGTKLTVLG | 0.00028 s⁻¹ | 96% | 115 pM | – | – | –
16H7 variant with light chain substitution D52N (antibody, V domains shown) VH: not shown VL: SYVLTQPPSVSVAPGQTARITCGGNNIGSESVHWYQQKPGQAPVLVVYDDSNRPSGIPERFSGSNSGNTATLTISRVEAGDEADYYCQVWDGNSDHVVFGGGTKLTVLG | 6.9e-07 s⁻¹ | 115% | 124 pM | – | – | –
16H7 light chain variant S31V (antibody, human IgG4 S228P, lambda, V domains shown) VH: not shown VL: SYVLTQPPSVSVAPGQTARITCGGNNIGSEVVHWYQQKPGQAPVLVVYDDSDRPSGIPERFSGSNSGNTATLTISRVEAGDEADYYCQVWDGNSDHVVFGGGTKLTVLG | – | – | – | 6.6e-05 s⁻¹ | 100% | 106 pM
16H7 variant with light chain substitution D52Y (antibody, V domains shown) VH: not shown VL: SYVLTQPPSVSVAPGQTARITCGGNNIGSESVHWYQQKPGQAPVLVVYDDSYRPSGIPERFSGSNSGNTATLTISRVEAGDEADYYCQVWDGNSDHVVFGGGTKLTVLG | 9.1e-05 s⁻¹ | 102% | 110 pM | – | – | –
16H7 variant with light chain substitution D52R (antibody, V domains shown) VH: not shown VL: SYVLTQPPSVSVAPGQTARITCGGNNIGSESVHWYQQKPGQAPVLVVYDDSRRPSGIPERFSGSNSGNTATLTISRVEAGDEADYYCQVWDGNSDHVVFGGGTKLTVLG | 2.9e-05 s⁻¹ | 96% | 91 pM | – | – | –
16H7 variant with light chain substitution D52S (antibody, V domains shown) VH: not shown VL: SYVLTQPPSVSVAPGQTARITCGGNNIGSESVHWYQQKPGQAPVLVVYDDSSRPSGIPERFSGSNSGNTATLTISRVEAGDEADYYCQVWDGNSDHVVFGGGTKLTVLG | 4e-05 s⁻¹ | 108% | 98 pM | – | – | –
16H7 variant with light chain substitution D52L (antibody, V domains shown) VH: not shown VL: SYVLTQPPSVSVAPGQTARITCGGNNIGSESVHWYQQKPGQAPVLVVYDDSLRPSGIPERFSGSNSGNTATLTISRVEAGDEADYYCQVWDGNSDHVVFGGGTKLTVLG | 5.7e-05 s⁻¹ | 106% | 107 pM | – | – | –
